# B1: NB0828 (antibody, V domains shown)
# VH: QVQLVQSGAEVKKPGASVKVSCKASGYTFTSYGISWVRQAPGQGLEWMGWISAYNGNTNYAQKLQGRVTMTTDTSTSTAYMELRSLRSDDTAVYYCARDMLVVPFDYWGQGTLVTVSS
# VL: QSVLTQSSSASGTPGQTVTVSCSGSSSDIGSNRVNWYQQLPGTAPKLLIYSNDQRPSGVPDRFSGSKSGTSASLAISGLQSADEADYYCAAWDDSLSTYVFGSGTKVTVL
# Target: T1, recombinant rat periostin (rat, UniProt A0A8I6AHK0 24-838)
# T1 construct: also called RatPOSTN
# Assay: BLI (Octet Red), NB0828 captured on anti-human Fc (AHC) biosensors, periostin titrated from 100 nM
# Procedure: NB0828's binding affinity was determined across human, mouse, rat, and cyno species. NB0828 affinities were determined using the octet red system. Briefly, anti-human Fc (AHC) biosensors were used to capture NB0828, followed by association of titrating amounts of either recombinant human, mouse, rat, or cyno periostin (100 nM→0 nM; 1:2 dilutions). Recombinant human, mouse, and rat periostin was purchased commercially from R&D systems, whereas cyno periostin was made internally.
binder,measurement,value
B1,Kd,540 pM
same,koff,0.000393 s⁻¹
same,kon,727000 M⁻¹ s⁻¹

# — US20220010003A1 (Boehringer Ingelheim, published 2022)
